Measurements: PMC8224366

Legend:
[1] = target: EPN-Fos-C (EPN monomer with the Fos domain at the C-end; prokaryotic construct pET-EPN-Fos-C) (HIV | not stated)
[2] = target: EPN-Fos-M (EPN monomer with the Fos domain between the Interaction domain and the Late budding domain; prokaryotic construct pET-EPN-Fos-M) (not stated | HIV)
[3] = target: EPN-p6 (enveloped protein nanocage monomer with the p6 domain; prokaryotic construct pET-EPN-His-p6) (HIV)

Row | Substance | NanoLuc, molecules in a single nanocage, in EV C (estimated from luciferase assay and the EPN/NanoLuc molar ratio by MS/MS) (molecules in a single nanocage) [1] | NanoLuc, molecules in a single nanocage, in EV C(lenti) (estimated from luciferase assay and the EPN/NanoLuc molar ratio by MS/MS) (molecules in a single nanocage) [1] | NanoLuc, molecules in a single nanocage, in EV M (estimated from luciferase assay and the EPN/NanoLuc molar ratio by MS/MS) (molecules in a single nanocage) [2] | NanoLuc, molecules in a single nanocage, in EV p6 (estimated from luciferase assay and the EPN/NanoLuc molar ratio by MS/MS) (molecules in a single nanocage) [3]
1 | NanoLuc-Jun (NanoLuc luciferase fused with the Jun leucine zipper domain) | 15 | 40 | 21 | –
2 | NanoLuc-Vpr (NanoLuc luciferase fused with HIV viral protein R) (from UniProt P69726 1-96) | – | – | – | 1.5
